Test results as given in patent US20190185537A1 (AstraZeneca / MedImmune, published 2019).
Numbered stars: 1 amine (or outer) side, 2 acyl side, 3 side chain; on linkers, the order of the positions; unused ones are H or OH. Side chains are listed from the residue outwards. Ends that are not written are not given here. * marks the point of attachment. γGlu = O=C(O)[C@H](CCC(=O)[*:2])N[*:1]; Palmitoyl = CCCCCCCCCCCCCCCC(=O)*

T1: human glucose-dependent insulinotropic peptide (gastric inhibitory polypeptide) receptor (human) (UniProt P48546)
T1 sequence (looked up): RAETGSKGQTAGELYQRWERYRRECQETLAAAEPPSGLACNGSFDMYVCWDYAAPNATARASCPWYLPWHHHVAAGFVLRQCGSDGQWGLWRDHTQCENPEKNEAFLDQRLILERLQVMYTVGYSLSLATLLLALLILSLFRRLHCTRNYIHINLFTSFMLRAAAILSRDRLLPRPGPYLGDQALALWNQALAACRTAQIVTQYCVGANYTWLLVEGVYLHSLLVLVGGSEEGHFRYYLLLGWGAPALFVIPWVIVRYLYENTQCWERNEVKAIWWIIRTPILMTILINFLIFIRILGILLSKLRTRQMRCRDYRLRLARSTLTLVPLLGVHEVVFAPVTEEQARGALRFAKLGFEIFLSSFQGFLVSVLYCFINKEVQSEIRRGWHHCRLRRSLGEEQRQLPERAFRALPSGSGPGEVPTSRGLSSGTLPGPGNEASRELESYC


Legend:
Experiment in all cases: cell-based or functional assay
human glucagon receptor = human glucagon receptor (human, UniProt P47871 26-477)
human glucagon receptor, sequence (P47871 26-477): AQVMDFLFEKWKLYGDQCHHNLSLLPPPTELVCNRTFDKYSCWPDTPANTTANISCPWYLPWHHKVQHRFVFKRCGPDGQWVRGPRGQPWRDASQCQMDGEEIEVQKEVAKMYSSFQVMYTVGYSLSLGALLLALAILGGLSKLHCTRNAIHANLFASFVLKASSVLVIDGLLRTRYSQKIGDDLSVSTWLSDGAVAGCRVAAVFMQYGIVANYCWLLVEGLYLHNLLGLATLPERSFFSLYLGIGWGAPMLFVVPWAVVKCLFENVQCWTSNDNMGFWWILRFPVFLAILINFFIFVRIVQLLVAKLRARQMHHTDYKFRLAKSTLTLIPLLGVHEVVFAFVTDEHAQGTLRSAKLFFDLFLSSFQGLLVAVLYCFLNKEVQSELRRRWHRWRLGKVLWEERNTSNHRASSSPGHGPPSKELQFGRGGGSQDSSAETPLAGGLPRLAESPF

human GLP-1 receptor = human GLP-1 receptor (human, UniProt P43220 24-463)
human GLP-1 receptor, sequence (P43220 24-463): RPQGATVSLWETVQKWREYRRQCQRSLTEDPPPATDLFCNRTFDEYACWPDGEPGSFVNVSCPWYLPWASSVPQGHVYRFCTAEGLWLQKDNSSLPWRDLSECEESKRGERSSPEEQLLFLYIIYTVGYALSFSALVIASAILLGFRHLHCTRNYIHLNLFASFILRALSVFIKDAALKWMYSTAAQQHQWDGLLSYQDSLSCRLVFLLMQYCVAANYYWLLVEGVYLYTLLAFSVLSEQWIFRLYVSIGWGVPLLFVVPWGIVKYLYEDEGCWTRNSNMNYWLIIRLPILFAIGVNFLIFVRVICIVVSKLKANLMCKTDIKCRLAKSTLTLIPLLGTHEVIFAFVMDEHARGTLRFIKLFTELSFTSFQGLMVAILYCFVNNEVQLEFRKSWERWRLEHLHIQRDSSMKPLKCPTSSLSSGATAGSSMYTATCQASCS

[1] = target: T1, human glucose-dependent insulinotropic peptide (gastric inhibitory polypeptide) receptor (human)

cAMP EC50 (assay 1) (human glucagon receptor) [nM] | cAMP EC50 (assay 1) (human GLP-1 receptor) [nM] | cAMP EC50 (assay 1) [1] [nM] | Binder
1.49 | 3.35 | – | HSQGTFTSDYSK([γGlu-Palmitoyl])YLDSERAQDFVQWLVAGG-NH2 (N-terminus assumed; SMILES CCCCCCCCCCCCCCCC(=O)N[C@@H](CCC(=O)NCCCC[C@H](NC(=O)[C@H](CO)NC(=O)[C@H](Cc1ccc(O)cc1)NC(=O)[C@H](CC(=O)O)NC(=O)[C@H](CO)NC(=O)[C@@H](NC(=O)[C@H](Cc1ccccc1)NC(=O)[C@@H](NC(=O)CNC(=O)[C@H](CCC(N)=O)NC(=O)[C@H](CO)NC(=O)[C@@H](N)Cc1c[nH]cn1)[C@@H](C)O)[C@@H](C)O)C(=O)N[C@@H](Cc1ccc(O)cc1)C(=O)N[C@@H](CC(C)C)C(=O)N[C@@H](CC(=O)O)C(=O)N[C@@H](CO)C(=O)N[C@@H](CCC(=O)O)C(=O)N[C@@H](CCCNC(=N)N)C(=O)N[C@@H](C)C(=O)N[C@@H](CCC(N)=O)C(=O)N[C@@H](CC(=O)O)C(=O)N[C@@H](Cc1ccccc1)C(=O)N[C@H](C(=O)N[C@@H](CCC(N)=O)C(=O)N[C@@H](Cc1c[nH]c2ccccc12)C(=O)N[C@@H](CC(C)C)C(=O)N[C@H](C(=O)N[C@@H](C)C(=O)NCC(=O)NCC(N)=O)C(C)C)C(C)C)C(=O)O) [g702]
0.008 | 0.0203 | 14.9 | HSQGTFTSDYSKYK([γGlu-Palmitoyl])DSRSAQDFVQWLVAGG-NH2 (N-terminus assumed; SMILES CCCCCCCCCCCCCCCC(=O)N[C@@H](CCC(=O)NCCCC[C@H](NC(=O)[C@H](Cc1ccc(O)cc1)NC(=O)[C@H](CCCCN)NC(=O)[C@H](CO)NC(=O)[C@H](Cc1ccc(O)cc1)NC(=O)[C@H](CC(=O)O)NC(=O)[C@H](CO)NC(=O)[C@@H](NC(=O)[C@H](Cc1ccccc1)NC(=O)[C@@H](NC(=O)CNC(=O)[C@H](CCC(N)=O)NC(=O)[C@H](CO)NC(=O)[C@@H](N)Cc1c[nH]cn1)[C@@H](C)O)[C@@H](C)O)C(=O)N[C@@H](CC(=O)O)C(=O)N[C@@H](CO)C(=O)N[C@@H](CCCNC(=N)N)C(=O)N[C@@H](CO)C(=O)N[C@@H](C)C(=O)N[C@@H](CCC(N)=O)C(=O)N[C@@H](CC(=O)O)C(=O)N[C@@H](Cc1ccccc1)C(=O)N[C@H](C(=O)N[C@@H](CCC(N)=O)C(=O)N[C@@H](Cc1c[nH]c2ccccc12)C(=O)N[C@@H](CC(C)C)C(=O)N[C@H](C(=O)N[C@@H](C)C(=O)NCC(=O)NCC(N)=O)C(C)C)C(C)C)C(=O)O) [g670]
4.52 | 0.106 | 123 | HGQGTFTSDYSKYLDSK([γGlu-Palmitoyl])RAEDFVQWLVAGG-NH2 (N-terminus assumed; SMILES CCCCCCCCCCCCCCCC(=O)N[C@@H](CCC(=O)NCCCC[C@H](NC(=O)[C@H](CO)NC(=O)[C@H](CC(=O)O)NC(=O)[C@H](CC(C)C)NC(=O)[C@H](Cc1ccc(O)cc1)NC(=O)[C@H](CCCCN)NC(=O)[C@H](CO)NC(=O)[C@H](Cc1ccc(O)cc1)NC(=O)[C@H](CC(=O)O)NC(=O)[C@H](CO)NC(=O)[C@@H](NC(=O)[C@H](Cc1ccccc1)NC(=O)[C@@H](NC(=O)CNC(=O)[C@H](CCC(N)=O)NC(=O)CNC(=O)[C@@H](N)Cc1c[nH]cn1)[C@@H](C)O)[C@@H](C)O)C(=O)N[C@@H](CCCNC(=N)N)C(=O)N[C@@H](C)C(=O)N[C@@H](CCC(=O)O)C(=O)N[C@@H](CC(=O)O)C(=O)N[C@@H](Cc1ccccc1)C(=O)N[C@H](C(=O)N[C@@H](CCC(N)=O)C(=O)N[C@@H](Cc1c[nH]c2ccccc12)C(=O)N[C@@H](CC(C)C)C(=O)N[C@H](C(=O)N[C@@H](C)C(=O)NCC(=O)NCC(N)=O)C(C)C)C(C)C)C(=O)O) [g678]
0.00177 | 0.0366 | 19.6 | HSQGTFTSDYSKYLDSK([γGlu-γGlu-Palmitoyl])RAQDFVQWLVAGG-NH2 (N-terminus assumed; SMILES CCCCCCCCCCCCCCCC(=O)N[C@@H](CCC(=O)N[C@@H](CCC(=O)NCCCC[C@H](NC(=O)[C@H](CO)NC(=O)[C@H](CC(=O)O)NC(=O)[C@H](CC(C)C)NC(=O)[C@H](Cc1ccc(O)cc1)NC(=O)[C@H](CCCCN)NC(=O)[C@H](CO)NC(=O)[C@H](Cc1ccc(O)cc1)NC(=O)[C@H](CC(=O)O)NC(=O)[C@H](CO)NC(=O)[C@@H](NC(=O)[C@H](Cc1ccccc1)NC(=O)[C@@H](NC(=O)CNC(=O)[C@H](CCC(N)=O)NC(=O)[C@H](CO)NC(=O)[C@@H](N)Cc1c[nH]cn1)[C@@H](C)O)[C@@H](C)O)C(=O)N[C@@H](CCCNC(=N)N)C(=O)N[C@@H](C)C(=O)N[C@@H](CCC(N)=O)C(=O)N[C@@H](CC(=O)O)C(=O)N[C@@H](Cc1ccccc1)C(=O)N[C@H](C(=O)N[C@@H](CCC(N)=O)C(=O)N[C@@H](Cc1c[nH]c2ccccc12)C(=O)N[C@@H](CC(C)C)C(=O)N[C@H](C(=O)N[C@@H](C)C(=O)NCC(=O)NCC(N)=O)C(C)C)C(C)C)C(=O)O)C(=O)O) [g336]
– | 0.0733 | 582 | HSQGTFTSDYSKYLDSK([γGlu-Palmitoyl])RAQDFVQWLVAGG-NH2 (N-terminus assumed; SMILES CCCCCCCCCCCCCCCC(=O)N[C@@H](CCC(=O)NCCCC[C@H](NC(=O)[C@H](CO)NC(=O)[C@H](CC(=O)O)NC(=O)[C@H](CC(C)C)NC(=O)[C@H](Cc1ccc(O)cc1)NC(=O)[C@H](CCCCN)NC(=O)[C@H](CO)NC(=O)[C@H](Cc1ccc(O)cc1)NC(=O)[C@H](CC(=O)O)NC(=O)[C@H](CO)NC(=O)[C@@H](NC(=O)[C@H](Cc1ccccc1)NC(=O)[C@@H](NC(=O)CNC(=O)[C@H](CCC(N)=O)NC(=O)[C@H](CO)NC(=O)[C@@H](N)Cc1c[nH]cn1)[C@@H](C)O)[C@@H](C)O)C(=O)N[C@@H](CCCNC(=N)N)C(=O)N[C@@H](C)C(=O)N[C@@H](CCC(N)=O)C(=O)N[C@@H](CC(=O)O)C(=O)N[C@@H](Cc1ccccc1)C(=O)N[C@H](C(=O)N[C@@H](CCC(N)=O)C(=O)N[C@@H](Cc1c[nH]c2ccccc12)C(=O)N[C@@H](CC(C)C)C(=O)N[C@H](C(=O)N[C@@H](C)C(=O)NCC(=O)NCC(N)=O)C(C)C)C(C)C)C(=O)O) [g335]

Second part, the binder before the results:

Binder | cAMP EC50 (assay 1) (human glucagon receptor) [nM] | cAMP EC50 (assay 1) (human GLP-1 receptor) [nM] | cAMP EC50 (assay 1) [1] [nM]
HXQGTFTSDYSKYLDSKRAQDFVQWLVAGG (Aib at 2 (written X); K(gE-palm) at 17; C-terminal amide) [g384] | 0.0429 | 0.0272 | 17
HSEGTFTSDYSKYLDSK([γGlu-Palmitoyl])RAQDFVQWLVAGG-NH2 (N-terminus assumed; SMILES CCCCCCCCCCCCCCCC(=O)N[C@@H](CCC(=O)NCCCC[C@H](NC(=O)[C@H](CO)NC(=O)[C@H](CC(=O)O)NC(=O)[C@H](CC(C)C)NC(=O)[C@H](Cc1ccc(O)cc1)NC(=O)[C@H](CCCCN)NC(=O)[C@H](CO)NC(=O)[C@H](Cc1ccc(O)cc1)NC(=O)[C@H](CC(=O)O)NC(=O)[C@H](CO)NC(=O)[C@@H](NC(=O)[C@H](Cc1ccccc1)NC(=O)[C@@H](NC(=O)CNC(=O)[C@H](CCC(=O)O)NC(=O)[C@H](CO)NC(=O)[C@@H](N)Cc1c[nH]cn1)[C@@H](C)O)[C@@H](C)O)C(=O)N[C@@H](CCCNC(=N)N)C(=O)N[C@@H](C)C(=O)N[C@@H](CCC(N)=O)C(=O)N[C@@H](CC(=O)O)C(=O)N[C@@H](Cc1ccccc1)C(=O)N[C@H](C(=O)N[C@@H](CCC(N)=O)C(=O)N[C@@H](Cc1c[nH]c2ccccc12)C(=O)N[C@@H](CC(C)C)C(=O)N[C@H](C(=O)N[C@@H](C)C(=O)NCC(=O)NCC(N)=O)C(C)C)C(C)C)C(=O)O) [g381] | 1.93 | 0.0908 | 545
HGQGTFTSDYSKYLDSK([γGlu-Palmitoyl])RAQDFVEWLVAGG-NH2 (N-terminus assumed; SMILES CCCCCCCCCCCCCCCC(=O)N[C@@H](CCC(=O)NCCCC[C@H](NC(=O)[C@H](CO)NC(=O)[C@H](CC(=O)O)NC(=O)[C@H](CC(C)C)NC(=O)[C@H](Cc1ccc(O)cc1)NC(=O)[C@H](CCCCN)NC(=O)[C@H](CO)NC(=O)[C@H](Cc1ccc(O)cc1)NC(=O)[C@H](CC(=O)O)NC(=O)[C@H](CO)NC(=O)[C@@H](NC(=O)[C@H](Cc1ccccc1)NC(=O)[C@@H](NC(=O)CNC(=O)[C@H](CCC(N)=O)NC(=O)CNC(=O)[C@@H](N)Cc1c[nH]cn1)[C@@H](C)O)[C@@H](C)O)C(=O)N[C@@H](CCCNC(=N)N)C(=O)N[C@@H](C)C(=O)N[C@@H](CCC(N)=O)C(=O)N[C@@H](CC(=O)O)C(=O)N[C@@H](Cc1ccccc1)C(=O)N[C@H](C(=O)N[C@@H](CCC(=O)O)C(=O)N[C@@H](Cc1c[nH]c2ccccc12)C(=O)N[C@@H](CC(C)C)C(=O)N[C@H](C(=O)N[C@@H](C)C(=O)NCC(=O)NCC(N)=O)C(C)C)C(C)C)C(=O)O) [g679] | 0.189 | 0.135 | 117
